From publication PMC11162810, “Functional redundancy in tRNA dihydrouridylation” (Nucleic Acids Research, 2024) come the findings set out here.

One data set addresses T1, BsDusB2 (Bacillus subtilis, UniProt O31546).
T1 construct: gene dus2; monomer about 39 kDa; synthetic gene (Eurofins)
T1 sequence (O31546 1-325): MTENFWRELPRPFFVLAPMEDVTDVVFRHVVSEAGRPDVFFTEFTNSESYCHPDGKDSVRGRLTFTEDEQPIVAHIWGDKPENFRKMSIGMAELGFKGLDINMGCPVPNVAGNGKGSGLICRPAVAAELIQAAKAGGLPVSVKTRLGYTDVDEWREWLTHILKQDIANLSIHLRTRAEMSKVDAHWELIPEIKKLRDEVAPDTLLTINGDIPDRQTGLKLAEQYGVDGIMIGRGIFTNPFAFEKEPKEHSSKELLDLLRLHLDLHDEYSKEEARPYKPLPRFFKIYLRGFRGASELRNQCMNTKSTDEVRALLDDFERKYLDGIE
As to the kind of experiment: copurified flavin, UV-visible absorption and fluorescence, SDS release. The data set is classed as binding. The note with it: non-covalent.

For another data set, the target named is T2, BsDusB1 (Bacillus subtilis, UniProt P37567).
T2 construct: gene dus1; monomer about 40 kDa; synthetic gene (Eurofins)
T2 sequence (P37567 1-333): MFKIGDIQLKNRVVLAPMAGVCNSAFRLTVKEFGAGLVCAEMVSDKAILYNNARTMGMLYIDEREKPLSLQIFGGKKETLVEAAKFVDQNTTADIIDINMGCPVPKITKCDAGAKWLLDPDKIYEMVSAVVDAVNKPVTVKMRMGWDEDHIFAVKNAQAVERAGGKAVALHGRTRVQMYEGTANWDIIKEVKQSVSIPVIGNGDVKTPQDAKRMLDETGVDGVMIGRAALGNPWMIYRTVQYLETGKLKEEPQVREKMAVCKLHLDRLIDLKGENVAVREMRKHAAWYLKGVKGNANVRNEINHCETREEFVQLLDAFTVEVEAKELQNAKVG
The description is as above. The data set is classed as binding. As to conditions: non-covalent.

Substrate in data set [1]: NC(=O)C1=CN([C@@H]2O[C@H](COP(=O)(O)OP(=O)(O)OC[C@H]3O[C@@H](n4cnc5c(N)ncnc54)[C@H](O)[C@@H]3O)[C@@H](O)[C@H]2O)C=CC1
The data set can be described thus: purified protein. The data set is classed as biochemical, Bacillus subtilis. As to conditions: aerobic (NAD(P)H oxidase, no tRNA mentioned).

Substrate in data set [2]: NC(=O)C1=CN([C@@H]2O[C@H](COP(=O)(O)OP(=O)(O)OC[C@H]3O[C@@H](n4cnc5c(N)ncnc54)[C@H](OP(=O)(O)O)[C@@H]3O)[C@@H](O)[C@H]2O)C=CC1
As to the kind of experiment: purified protein. The format is biochemical, Bacillus subtilis. The note with it: aerobic (NAD(P)H oxidase, no tRNA mentioned).

Regarding `Cc1cc2nc3c(=O)[nH]c(=O)nc-3n(C[C@H](O)[C@H](O)[C@H](O)COP(=O)(O)O)c2cc1C` [FMN], the “copurified flavin, UV-visible absorption and fluorescence, SDS release” value on BsDusB2 and on BsDusB1 was “both BsDusB enzymes are flavoproteins with the FMN non-covalently bound to the apoprotein” throughout.

B1: BsDusB1 (Bacillus subtilis subsp. subtilis str. 168) (protein)
chain: MFKIGDIQLKNRVVLAPMAGVCNSAFRLTVKEFGAGLVCAEMVSDKAILYNNARTMGMLYIDEREKPLSLQIFGGKKETLVEAAKFVDQNTTADIIDINMGCPVPKITKCDAGAKWLLDPDKIYEMVSAVVDAVNKPVTVKMRMGWDEDHIFAVKNAQAVERAGGKAVALHGRTRVQMYEGTANWDIIKEVKQSVSIPVIGNGDVKTPQDAKRMLDETGVDGVMIGRAALGNPWMIYRTVQYLETGKLKEEPQVREKMAVCKLHLDRLIDLKGENVAVREMRKHAAWYLKGVKGNANVRNEINHCETREEFVQLLDAFTVEVEAKELQNAKVG
notes: monomer about 40 kDa; synthetic gene (Eurofins)
As to B1, in “purified protein [1]”, the Km came out at 21 ± 4 µM, the kcat stood at 0.013 ± 0.0014 s⁻¹ and the kcat/Km was determined as 600 M⁻¹ s⁻¹. Further, in the data set “purified protein [2]”, the Km is 18 ± 3 µM, the kcat was 0.013 ± 0.002 s⁻¹ and the kcat/Km was found to be 700 M⁻¹ s⁻¹.

B2: BsDusB2 (Bacillus subtilis subsp. subtilis str. 168) (protein)
chain: MTENFWRELPRPFFVLAPMEDVTDVVFRHVVSEAGRPDVFFTEFTNSESYCHPDGKDSVRGRLTFTEDEQPIVAHIWGDKPENFRKMSIGMAELGFKGLDINMGCPVPNVAGNGKGSGLICRPAVAAELIQAAKAGGLPVSVKTRLGYTDVDEWREWLTHILKQDIANLSIHLRTRAEMSKVDAHWELIPEIKKLRDEVAPDTLLTINGDIPDRQTGLKLAEQYGVDGIMIGRGIFTNPFAFEKEPKEHSSKELLDLLRLHLDLHDEYSKEEARPYKPLPRFFKIYLRGFRGASELRNQCMNTKSTDEVRALLDDFERKYLDGIE
notes: monomer about 39 kDa; synthetic gene (Eurofins)
On to B2, for which the Michaelis-Menten constant (Km) in the data set “purified protein [1]” (kcat error missing in the table) is 22 ± 4 µM. For the same molecule, in the data set “purified protein [2]”, the Km was 2.1 ± 0.2 µM, the turnover number (kcat) came to 0.7 ± 0.1 s⁻¹ and the kcat/Km was 300000 M⁻¹ s⁻¹.
